How the values were obtained:
[1] = target: T1, canine beta-NGF (cNGF) (canine, UniProt Q29074 110-229 (pig entry)); experiment: SPR (Biacore), KD column of Table 3
T1 construct: also called canine NGF; can NGF
T1 chain: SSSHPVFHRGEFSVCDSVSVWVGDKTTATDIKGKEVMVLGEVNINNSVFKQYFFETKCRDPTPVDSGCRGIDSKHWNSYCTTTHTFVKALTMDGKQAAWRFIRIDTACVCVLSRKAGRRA

[2] = target: T1, canine beta-NGF (cNGF); experiment: SPR (Biacore), cNGF binding; KD column of Table 7
[3] = target: T1, canine beta-NGF (cNGF); experiment: SPR (Biacore)
[4] = target: NGF (species not stated); experiment: cell-based or functional assay
[5] = target: rat NGF (rat, UniProt P25427 122-241); experiment: cell-based or functional assay
Sequence of rat NGF (P25427 122-241 limits assumed): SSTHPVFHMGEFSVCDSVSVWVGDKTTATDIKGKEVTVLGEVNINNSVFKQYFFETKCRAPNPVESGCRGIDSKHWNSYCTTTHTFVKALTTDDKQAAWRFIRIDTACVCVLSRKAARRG

[6] = target: T1, canine beta-NGF (cNGF); experiment: cell-based or functional assay
[7] = target: NGF (species not stated); experiment: cell-based or functional assay; remark: listed apart in the source
[8] = target: T2, feline NGF (feline); experiment: SPR, Biacore 3000, feline NGF
T2 chain: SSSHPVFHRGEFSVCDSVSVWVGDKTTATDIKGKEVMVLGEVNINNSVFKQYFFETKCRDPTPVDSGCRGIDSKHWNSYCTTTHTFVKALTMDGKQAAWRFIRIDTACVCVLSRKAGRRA
Method: Affinities of selected felinized anti-NGF antibody to feline NGF were measured using SPR (Surface Plasmon Resonance), Biacore 3000. Kinetics of association and dissociation of a felinized mAb with/from feline NGF were measured at different concentrations.

Row | Binder | IC50 (nM) (pERK-1/2, cell line expressing human TrkA) [7] | Kd [8] [nM] | other results
1 | H3AQC23L1A02D9L2 (antibody, V domains shown, Caninized IgG) VH: EVQLVESGGDLARPGGSLKLSCVVSGFTLTQYGINWVRQAPGKGLQWVTVIWATGATDYNSALKSRFTVSRDNAMNTVYLQMNSLRVEDTAVYYCARDGWWYATSWYFDVWGQGTLVTVSS VL: DIVMTQTPLSLSVSPGEPASISCRASQDISNYLNWFRQKPDGTVKLLIYKTNSLQTGVPSRFSGSGSGTDFTLRISRVEADDAGVYYCQQGSTLPRTFGQGT | – | – | binding result [1]: no binding
2 | H3AQC2301B12L1AL1L3 (ZTS-00103182) (antibody, V domains shown, Caninized IgG; 49 as printed runs on into CH1; the VL entry stops at FGQGT; also called ZTS-182; wt 182) VH: EVQLVESGGDLARPGGSLKLSCVVSGFTLTQYGINWVRQAPGKGLQWVTVIWATGATDYNSALKSRFTVSRDNAMNTVYLQMNSLRVEDTAVYYCARDGWWYATSWYFDVWGQGTLVTVSS VL: DIVMTQTPLSLSVSPGEPASISCKASQDINHYLNWFRQKPDGTVKLLIYYTSRLHSGVPSRFSGSGSGTDFTLRISRVEADDAGVYYCQQGDHFPRTFGQGT | – | – | Kd [2]: 0.0027 nM; Kd [3]: 0.061 nM; IC50 nM (TF-1 proliferation inhibition, NGF 2.0 ng/ml) [4]: 0.046 nM; IC50 µg/ml (TF-1 proliferation inhibition, NGF 2.0 ng/ml) [4]: 0.00693 µg/mL; IC50 nM (inhibition of neurite outgrowth, PC12 cells, rat NGF 10 ng/ml) [5]: 0.21 nM; IC50 µg/ml (inhibition of neurite outgrowth, PC12 cells, rat NGF 10 ng/ml) [5]: 0.031 µg/mL; IC50 [nM] (TrkA cell based assay) [6]: 1.26 nM
3 | mAb 1B (ZTS-082) (antibody, IgG1a, V domains shown, Felinized IgG with feline heavy and kappa constant regions; also called ZTS-082-1B; H1-23 / KPL) VH: DVQLVESGGDLVQPGGSLRLTCVASGFTLTQYGINWVRQAPGKGLQWVAVIWATGATDYNSALKSRFTISRDNAKNTLYLQMNSLKTEDTATYYCARDGWWYATSWYFDVWGQGALVTVSS VL: DIVMTQTPLSLSVTPGEPASISCKASQDINHYLNWYLQKPDGTVKLLIYYTSRLHSGVPSRFSGSGSGTDFTLRISRVEADDVGVYYCQQGDHFPRTFGPGT | 1.28 | 0.00941 | –
4 | H1-23K643 (antibody, V domains shown, also called ZTS-082-2D) VH: DVQLVESGGDLVQPGGSLRLTCVASGFTLTQYGINWVRQAPGKGLQWVAVIWATGATDYNSALKSRFTISRDNAKNTLYLQMNSLKTEDTATYYCARDGWWYATSWYFDVWGQGALVTVSS VL: EIQMTQSPSSLSASPGDRVTITCKASQDINHYLNWYQQKPGKVPKLLIYYTSRLHSGVPSRFSGSGSGTDFTLTISSLEPEDAATYYCQQGDHFPRTFGGGT | 1.48 | 0.177 | –
5 | H733KPL (antibody, V domains shown, also called ZTS-082-2E) VH: DVQLVESGGDLVKPGGSLRLTCVASGFTLTQYGINWVRQAPGKGLQWVAVIWATGATDYNSALKSRFTMSRDNARNTLYLQMNSLKTEDTATYYCARDGWWYATSWYFDVWGQGTLVTVSS VL: DIVMTQTPLSLSVTPGEPASISCKASQDINHYLNWYLQKPDGTVKLLIYYTSRLHSGVPSRFSGSGSGTDFTLRISRVEADDVGVYYCQQGDHFPRTFGPGT | 1.34 | 0.000458 | –
6 | H1-23L3K36 (antibody, V domains shown, also called ZTS-082-1C) VH: DVQLVESGGDLVQPGGSLRLTCVASGFTLTQYGINWVRQAPGKGLQWVAVIWATGATDYNSALKSRFTISRDNAKNTLYLQMNSLKTEDTATYYCARDGWWYATSWYFDVWGQGALVTVSS VL: DIVMTQTPLSLPVTPGEPASISCKASQDINHYLNWYLQKPGQSPRLLIYYTSRLHSGVPSRFSGSGSGTDFTLRISSVEADDVGVYYCQQGDHFPRTFGQGT | 1.3 | 0.916 | –
7 | H733 L3-K36 (antibody, V domains shown, also called ZTS-082-361) VH: DVQLVESGGDLVKPGGSLRLTCVASGFTLTQYGINWVRQAPGKGLQWVAVIWATGATDYNSALKSRFTMSRDNARNTLYLQMNSLKTEDTATYYCARDGWWYATSWYFDVWGQGTLVTVSS VL: DIVMTQTPLSLPVTPGEPASISCKASQDINHYLNWYLQKPGQSPRLLIYYTSRLHSGVPSRFSGSGSGTDFTLRISSVEADDVGVYYCQQGDHFPRTFGQGT | 1.13 | 0.000334 | –

From patent US20220106391A1 (ZOETIS SERVICES, published 2022)
